According to patent US20220267376A1, “P53 ACTIVATOR PEPTIDOMIMETIC MACROCYCLES” (Merck Sharp & Dohme Corp., priority 2019, published 2022):
Positions of bridges follow the written chain, without caps; N, C: chain ends. Non-standard residues stand in square brackets, D forms with d. Residues, ends and D or L forms follow the SMILES beside them. No end group written: not given here. dPhe(4-CF3) = N[C@H](Cc1ccc(C(F)(F)F)cc1)C(=O)O; dTrp(6-F) = N[C@H](Cc1c[nH]c2cc(F)ccc12)C(=O)O; R8 = C=CCCCCCC[C@@](C)(N)C(=O)O; S8 = C=CCCCCCC[C@](C)(N)C(=O)O; R5 = C=CCCC[C@@](C)(N)C(=O)O; S5 = C=CCCC[C@](C)(N)C(=O)O

T1: MDM4 (Homo sapiens, UniProt O15151)
T1 construct: GST; made in house
T1 sequence (O15151 1-490): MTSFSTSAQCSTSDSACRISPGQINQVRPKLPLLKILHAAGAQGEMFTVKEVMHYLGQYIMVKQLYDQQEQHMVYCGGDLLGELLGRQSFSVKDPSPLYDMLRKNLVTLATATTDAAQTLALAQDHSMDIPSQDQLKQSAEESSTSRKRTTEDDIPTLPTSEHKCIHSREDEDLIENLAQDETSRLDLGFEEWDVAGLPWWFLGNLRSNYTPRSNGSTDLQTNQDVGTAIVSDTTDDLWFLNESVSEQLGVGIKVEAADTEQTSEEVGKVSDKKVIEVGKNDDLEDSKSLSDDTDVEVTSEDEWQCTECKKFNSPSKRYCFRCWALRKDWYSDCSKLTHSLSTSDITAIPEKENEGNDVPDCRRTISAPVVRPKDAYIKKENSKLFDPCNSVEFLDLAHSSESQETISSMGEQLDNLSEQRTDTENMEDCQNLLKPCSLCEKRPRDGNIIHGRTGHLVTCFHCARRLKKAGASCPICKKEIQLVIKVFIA


Columns and labels:
[1] = molecular target: T2, MDM2 (Homo sapiens, UniProt Q00987); experiment: Surface plasmon resonance (SPR) binding to MDM2; conditions: MDM2
T2 construct: GST (N); His6 (N); made in house; host or cells: E. coli BL21 (DE3) Rosetta T1R
Method: SPR experiments were performed with Biacore T100 (GE Healthcare) at 25° C. […] SPR buffer consisted of PBS pH 7.2, 1 mM DTT, 0.01% Tween 20, and 3% DMSO. The CMS chip was first conditioned with 100 mM HCl, followed by 0.1% SIDS, 50 mM NaOH and then water, all performed twice with 6 second injection at a flow rate of 100 μL/min. With the flow rate set to 10 μL/minutes, streptavidin (S4762. Sigma-Aldrich) was immobilized on the conditioned chip through amine coupling as described in the Biacore manual. Excess protein was removed by 30 second injection of the wash solution (50 mM NaOH+1M NaCl) for at least 8 times. The immobilized levels are 3400-3700 RU. The biotinylated MDM2 were captured to the streptavidin, to a level of ˜400 RU for MDM2. Flow cell consisted of only streptavidin was used as the reference surface. Using a flow rate of 30 μL/minutes, peptides dissolved in the SPR buffer are injected for 180 sec. The dissociation was monitored for 300 seconds. […] For single-cycle kinetics, five peptide concentrations were injected consecutively for 180 seconds, followed by a 4000 second dissociation. Similar injection of SPR buffer was followed to allow the surface to be regenerated, though not completely. After the run, responses from the target protein surface are transformed by (i) correcting with DMSO calibration curve, (ii) subtracting the responses obtained from the reference surface, and (iii) subtracting the responses of buffer injections from those of peptide injections. The last step is known as double referencing which corrects the systematic artefacts. The resulting responses were subjected to kinetic analysis by global fitting with 1:1 binding model.

[2] = test system: HCT116 p53 reporter cells; experiment: p53 beta-lactamase reporter gene assay; type: cell-based; conditions: read-out: P53 activity EC50 (μM) (2% FBS) 16 H; HCT116 p53 reporter, 2% FBS, 16 H
Method: The cells were incubated overnight and followed by removal of cell growth media and replaced with Opti-MEM either containing 0% FBS or 10% FBS. […] Measurements were done using Envision multiplate reader (Perkin-Elmer).

[3] = test system: HCT116 cells; experiment: Lactate dehydrogenase (LDH) release assay; type: cell-based; conditions: up to 50 μM
Method: The cells were incubated overnight followed by removal of cell media and addition of Opti-MEM Medium without FBS. Cells were then treated with peptides for 4/16 hours in Opti-MEM either in 10% FBS or serum free. Final concentration of DMSO was 0.5%. […] Measurements were carried out using Tecan plate reader.

[4] = Circular dichroism (CD) helicity of peptide in solution; type: physicochemical; conditions: 25° C.
Method: Prior to the experiment, 5 μl of the 10 mM stock peptide was mixed with 45 μl of 100% methanol, and dried for 2 hours in the SpeedVac concentrator (Thermo Scientific). The dried peptide was reconstituted in buffer, containing 1 mM HEPES pH 7.4 and 5% methanol, to a concentration of 1 mM. The peptide sample was placed in a quartz cuvette with a path length of 0.2 cm and the CD spectrum was recorded from 300 to 190 nm at 25° C., using the Chirascan-plus qCD machine (Applied Photophysics). […] An estimate of the secondary stmcture components of the peptide was carried out by converting the CD spectrum to mean residue ellipticity, before deconvoluting using the CDNN software (distributed by Applied Photophysics). All experiments were done in duplicates.

[5] = molecular target: T1, MDM4; experiment: Fluorescence polarization (FP) binding to MDM4/MDMX; conditions: FP assay, MDM4 (MDMX)
[6] = test system: Jump-In™ T-REx™ CHO-K1 BLA cells; experiment: Tetracycline beta-lactamase reporter gene assay (counterscreen); type: cell-based
Method: Cells were seeded into a 384-well plate a density of 4000 cells per well. […] Measurements were carried out using Envision multiplate reader (Perkin-Elmer).

[7] = molecular target: T3, human MDM2 protein (amino acids 1-125) (Homo sapiens, UniProt Q00987); experiment: fluorescence polarization competition, FAM-12/1 tracer, MDM2
[8] = molecular target: T3, human MDM2 protein (amino acids 1-125); experiment: fluorescence polarization competition, MDM2
[9] = molecular target: MDM4 protein (human) (UniProt O15151); experiment: fluorescence polarization assay on MDM4 (anisotropy falls with the peptide concentration; the labeled tracer used with MDM4 is not given)
[10] = molecular target: T3, human MDM2 protein (amino acids 1-125); experiment: cell-based or functional assay
[11] = molecular target: T3, human MDM2 protein (amino acids 1-125); experiment: fluorescence anisotropy competition: unlabeled peptide titrated against the complex of MDM2 (250 nM) and FAM-labeled 12/1 peptide (50 nM)
[12] = molecular target: T3, human MDM2 protein (amino acids 1-125); experiment: SPR, biotinylated MDM2 on streptavidin, peptide as analyte

T3 sequence (Q00987 1-125 limits assumed): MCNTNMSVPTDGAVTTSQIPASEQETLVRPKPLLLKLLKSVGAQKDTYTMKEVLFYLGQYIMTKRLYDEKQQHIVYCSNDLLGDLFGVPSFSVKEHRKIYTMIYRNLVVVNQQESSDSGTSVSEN
T2 sequence (Q00987 1-125): as the sequence (Q00987 1-125 limits assumed) above

Molecule | Kd [7] [µM] | fold increase in affinity as compared to ^DPMI-δ(1-5) and ^DPMI-δ(5-12) [8] [fold] | IC50 (read off the curve) [9] [µM] | P53 activity EC50 (µM) (2% FBS) 16 H [10] | IC50 (read off the curve) [11] [µM] | Kd [12] [µM] | further results
CC(C)C[C@H]1NC(=O)[C@@H](CC(C)C)NC(=O)[C@@](C)(NC(=O)[C@@H](CCC(=O)O)NC(=O)[C@@H](Cc2ccc(C(F)(F)F)cc2)NC(=O)[C@@H](CC(N)=O)NC(=O)[C@@]2(C)CCC/C=C\CCC[C@@](C)(N)C(=O)N[C@H](C)C(=O)N[C@H](Cc3c[nH]c4cc(F)ccc34)C(=O)N[C@H](Cc3ccc(O)cc3)C(=O)N2)CCC/C=C\CCC[C@](C)(C(N)=O)NC1=O [^DPMI-δ (1-5,9-12)] (H-[R5][dA][dTrp(6-F)][dY][R5][dN][dPhe(4-CF3)][dE][S5][dL][dL][R5]-NH2; staple (Z) 1-5, 9-12) | – | – | – | – | – | – | Kd ([1]; Table 1): < 0.001 µM; Kd ([1]; Table 2): < 0.001 µM; EC50 [2]: 34.6 µM; LDH leakage [3]: No detectable LDH leakage; CD (% helicity) [4]: 20%; Kd [5]: 2.1 nM; counterscreen activity [6]: negligible counter screen activity; EC50 ([6]; read-out: Counterscreen EC50 (μM) (2% FBS) 16 H, 2% FBS, 16 H): ≥ 50 µM
[R5][dA][dTrp(6-F)][dY][R5][dN][dPhe(4-CF3)][dE][S5][dL][dL][R8]-NH2 (staple 1-5, 9-12) [^DPMI-δ(1-5,9-12)] | 0.0007 | 10 to 100 | 2 | 34.6 | 0.2 | < 0.001 | –
[dT][R5][dTrp(6-F)][dY][dA][R5][dPhe(4-CF3)][dE][dK][dL][dL][dR]-NH2 (staple 2-6) [^DPMI-δ(2-6)] | > 10 | – | – | > 50 | – | > 0.5 | –
XAXYXNXEKLLR (all alpha-amino acids have a D configuration; Xaa1 is R5 and Xaa5 is R5 ((R)-2-(4'-pentenyl)-alanine), joined by a hydrocarbon staple; Xaa3 is 6-F-Trp; Xaa7 is p-CF3-Phe; Xaa12 optionally has a C-terminal amide; Xaa1 optionally has a N-terminal acyl) [^DPMI-δ(1-5)] | – | – | 0.6 | 13.7 | 0.5 | < 0.001 | cellular activation of p53, EC50 (HCT116 p53 reporter cells) [10]: 17.5 µM
[dT][S8][dTrp(6-F)][dY][dA][dN][dPhe(4-CF3)][dE][R5][dL][dL][dR]-NH2 (staple 2-9) [^DPMI-δ(2-9)] | – | – | – | > 50 | – | – | –
XAXYXNXEKLLX (all alpha-amino acids have a D configuration; Xaa1 is R5 ((R)-2-(4'-pentenyl)-alanine), Xaa5 is B5 (2,2-(4'-pentenyl)-glycine), Xaa12 is R8 ((R)-2-(7'-octenyl)-alanine), joined by a hydrocarbon stitch 1-5 and 5-12 with residue 5 in common; Xaa3 is 6-F-Trp; Xaa7 is p-CF3-Phe; Xaa12 optionally has a C-terminal amide; Xaa1 optionally has a N-terminal acyl) [^DPMI-δ(1,5,12)] | 0.00425 | 10 to 100 | 1 | 4 | 0.2 | < 0.001 | –
